Consider 18 sequences from a protein production outcome set (Wang et al. 2014).

The data set in a line: label from the status in PepcDB records.
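Also: failed if final PepcDB status was selected cloned or expressed and not failed if soluble or beyond.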

“MSLCINPQCSKPQNPDNVLFCQTCGSELLLEGRYRVVSVLGGGGFGKTFAVNDTRTQTARVLKVLINNHPKAVELFQREAQVLALLNYPGIPTVEANGYFVYFPRNIQEPMHCLIMEKIEGLDLGEYLRQRDYRPIDEKLALQWFKEVVTILHQVHQQGLFHRDIKPSNIMLRADGRLVLIDFGTARSVTGTYIAKQAVGQVTGVISAGYTPSEQINGQAVQQSDFFALGRTFIYLLTGKEPSDPTIYNYLKDELHWRDGLLSSESNSVPPTVGYGVPPTVGDRTNILPQFADLLDQMMERLPGQRPQNTHIILQRLADIEKNLHPSSPPPPKPKGWTRRRLITVVGFSSLGLTGALAISRLLPKTTVIVSQEGGGDYKTIGAAMQNAQPGMRILVRPGLYQESLVLDKALKIIGDGAKAEIIIESKGASCLVVKTDQAEIRGLTFRSRAGTENKQYFAVDISQGQIILADCDITSDSLSGIGIHGATANPVIQKCQIHDGKQSGIYLYENSRGTIEDCDLFGNTTTEITVDAAQPIIRRCKIRQDKEGGILFRNQAQGTVEDCDIFNNNLSGIEIRDSSNPIIQKCRIHDNQQGDGILVHLNGRGTVEDCNIFGNGFSGVEIRDRGNPVIRRCNINKNKYYGVYAYKNSMGTVENCDLTGNIRSAINVDETSQLQRSGNVELEHHHHHH”: the protein production result is recorded as “failed”.

For “MSLDCRERIEKDLELLEKNLMEMKSIKLSDDEEAVVERALNYRDDSVYYLEKGDHITSFGCITYAHGLLDSLRMLHRIIEGHHHHHH”, the protein production result is recorded as “not failed”.

With “MSLDIAVVGIGYVGLVSATCFAELGANVRCIDTDRNKIEQLNSGTIPIYEPGLEKMIARNVKAGRLRFGTEIEQAVPEADIIFIAVGTPAGEDGSADMSYVLDAARSIGRAMSRYILIVTKSTVPVGSYRLIRKAIQEELDKREVLIDFDIASNPEFLKEGNAIDDFMKPDRVVVGVDSDRARELITSLYKPMLLNNFRVLFMDIASAEMTKYAANAMLATRISFMNDVANLCERVGADVSMVRLGIGSDSRIGSKFLYPGCGYGGSCFPKDVKALIRTAEDNGYRMEVLEAVERVNEKQKSILFDKFSTYYKGNVQGRCVAIWGLSFKPGTDDMREAPSLVLIEKLLEVGCRVRVYDPVAMKEAQKRLGDKVEYTTDMYDAVRGAEALFHVTEWKEFRMPDWSALSQAMAASLVIDGRNVYELPADSDFTLLNIGNSAIESEGHHHHHH”, the protein production result is “not failed”.

With “MSLDIEQQFLNDLDNQLWRAADKLRSNLDAANYKHVVLGLIFLKYVSDAFEERQQELTELFQKDDDDNIYYLPREDYDSDEAYQQAIAEELEIGDYYTEKNVFWVPKTARWNKLRDVITLPTGSVIWQDEQGEDVKLRSVSWLIDNAFDDIEKANPKLKGILNRISQYQLDADKLIGLINEFSLTSFNNPEYNGEKLNLKSKDILGHVYEYFLGQFALAEGKQGGQYYTPKSIVTLIVEMLEPYKGRVYDPAMGSGGFFVSSDKFIEKHANVKHYNASEQKKQISVYGQESNPTTWKLAAMNMVIRGIDFNFGKKNADSFLDDQHPDLRADFVMTNPPFNMKDWWHEKLADDPRWTINTNGEKRILTPPTGNANFAWMLHMLYHLAPTGSMALLLANGSMSSNTNNEGEIRKTLVEQDLVECMVALPGQLFTNTQIPACIWFLTKDKNAKNGKRDRRGQVLFIDARKLGYMKDRVLRDFKDEDIQKLADTFHNWQQEWSEENNQAGFCFSADLALIRKNDFVLTPGRYVGAEAEEDEGHHHHHH”, the protein production entry was “not failed”.

Regarding “MSLDKIRYGIMSTAQIVPRFVAGLRESAQAEVRGIASRRLENAQKMAKELAIPVAYGSYEELCKDETIDIIYIPTYNQGHYSAAKLALSQGKPVLLEKPFTLNAAEAEELFAIAQEQGVFLMEAQKSVFLPITQKVKATIQEGGLGEILWVQSVTAYPNVDHIPWFYSREAGGGALHGSGSYPLQYLQYVLGKEIQEVTGTATYQQGATDSQCNLALKFAEGTLGNIFINVGLKIPSEMTICGTKGQIVIPNFWKTDCAYYTDAQGNTVKWSEQFTSEFTYEINHVNQCLQDKKLTSPVMTKELTIATVKIVESFYQEWFDNEGHHHHHH”, the protein production entry is “not failed”.

Consider “MSLDMKEHPDAEVQKNQVLTLEDWKEKWVTRHISFHQEQGHQLLKKHLDTFLKGQSGLRVFFPLCGKAIEMKWFADRGHTVVGVEISEIGIREFFAEQNLSYTEEPLAEIAGAKVFKSSSGSISLYCCSIFDLPRANIGKFDRIWDRGALVAINPGDHDRYADIILSLLRKEFQYLVAVLSYDPTKHAGPPFYVPSAELKRLFGTKCSMQCLEEVDALEERHKAWGLDYLFEKLYLLTEK”, for which the protein production result is on record as “not failed”.

On to “MSLEALMNVQFFDHAHHKLKIRGLQSPVDVLTFEGREQLSTPFRYDIQFTSSDKAIAPESVLMQDGAFSLTAPPVQGMPVQTALRTLHGVITGFKHLSSSQDEARYEVRLEPRMALLTRSRQNAIYQNQTVPQIVEKILRERHQMRGQDFVFNLKSEYPAREQVMQYGEDDLTFVSRLLSEVGIWFRFATDARLKIEVIEFYDDQSGYERGLTLPLRHPSGLFDGETEAVWGLNTAYSVVEKSVSTRDYNYREATAEMTTGQHDATGGDNTTYGEAYHYADNFLQQGDKEAAESGAFYARIRHERYLNEQAILKGQSTSSLLMPGLEIKVQGDDAPAVFRKGVLITGVTTSAARDRSYELTFTAIPYSERYGYRPALIPRPVMAGTLPARVTSTVKNDIYAHIDKDGRYRVNLDFDRDTWKPGYESLWVRQSRPYAGDTYGLHLPLLAGTEVSIAFEEGNPDRPYIAGVKHDSAHTDHVTIQNEGHHHHHH”, for which the protein production result is given as “not failed”.

Regarding “MSLEDRKNERLPSDLARRATAIIEMPDGVLVTASRGGRYNLPGGKANRGELRSQALIREIREETGLRINSMLYLFDHITPFNAHKVYLCIAQGQPKPQNEIERIALVSSPDTDMDLFVEGRAILRRYARLRNEETAKGEALRALLGLARYIAKVDEGHHHHHH”, the protein production entry is reported as “not failed”.

As for “MSLEEWIKADSLEKADEYHKRYNYAVTNPVRRKILRMLDKGRSEEEIMQTLSLSKKQLDYHLKVLEAGFCIERVGERWVVTDAGKIVDKIRG”, the protein production entry was “not failed”.

As for “MSLEGFICKFNRKRRLYIENIMQVRVTGILIEDEKVLLVKQKVANRDWSLPGGRVENGETLEEAMIREMREETGLEVKIKKLLYVCDKPDASPSLLHITFLLERIEGEITLPSNEFDHNPIHDVQMVPINELSYYGFSETFINLISGGLANAGSYQGLKRNIGEGHHHHHH”, the protein production entry was “not failed”.

Regarding “MSLEKLDTNTFEQLIYDEGKACLVMFSRKNCHVCQKVTPVLEELRLNYEESFGFYYVDVEEEKTLFQRFSLKGVPQILYFKDGEYKGKMAGDVEDDEVEQMIADVLED”, the protein production entry was “not failed”.

For “MSLELPFSNQSIIPAAHNQKDMEKILELDLTYMVMLETHVAQLKALVKYAQAGGKKVLLHADLVNGLKNDDYAIDFLCTEICPDGIISTRGNAIMKAKQHKMLAIQRLFMIDSSAYNKGVALIQKVQPDCIELLPGIIPEQVQKMTQKLHIPVIAGGLIETSEQVNQVIASGAIAVTTSNKHLWEGHHHHHH”, the protein production result was “not failed”.

As to “MSLERFAPIKVERCKDIQKELKKAAAENKLQTEDLWFEILKTSIFIKNSAKDDFSEAFGGELQQLEEEEYYEKKELTLYQTHDIKIKSNAYKRFFEVKVDENLSAIEIILDECFIVLDTEEHYQEMFAYIKECLAFQGVVFRHFSQMYENLKTELRKYQKEAQNKRFILYTSSTFIPNIEEQSHFLLEEEYLPTHTIFLSDQEESFVKENYYIAKENQKVACVNCPKQGRDGRNLKGLYIELPKVAHSPTPIGHDKNAFEEREENNALVYYSKALQGVKMEKGRLVSKQNFIFKNGIKSIETPNLLGGLESGLALEIQARDELSDAIDSNLILEASVINIKGNVGKNVILVAKEITIEGQIHPESYVYANKARITNHKGVCYAKELECKYLERAKVYANSVKVEASAGSVVYAKEIALEKLKSDNKLYFSKQCWIDEVDGNGNRFIFYAFGGRENQEELKAAKQKLNALGLKSKKIIAQHQSLNHLVKNHQAIMEKLKNATEEIKRSLMQQESVKDAYSEFMFALKRLKILKAQMLELQKINNECYAKLISIENSFQHASITTKNPFKQENIVIYHRNYPKVSNSTAMLSHNESVNVIYEDHKIKKVPKSAIKG”, the protein production entry is “failed”.

In the case of “MSLETRARNSTRPASGLIDWEQARQAALRLSQWEQAPVDNRAFRREQYARMVALSEPLIADYLGVRLPEPVSRIFVFDRREWLEANIVSFSQLFRPIEEMYEKNGGGRGALGVLMNDVSSKLLGVQIGGLLGYLAQRVLGQYDLSLLSAEATGGSLYFVEPNIARVQQQLGLSDEDFRLWITLHEMTHAFEFEAYPWVRTYFRELLEQNFALVSGQMLSSGNSLVDMLMRLLQGIGSGQHWIETVLTPEQRAVFDRIQALMSLIEGYGNHVMNAVGRRLLPSFNQIEQQIAQRQRQRTMLDQMVFRLTGLDLKLAQYQQGEAFVNAVVAARGIQFASRVWERPENLPSMDEIRNPGQWIVRMDREGHHHHHH”, the protein production result is reported as “not failed”.

Regarding “MSLFAELTASVNAVRPGRTRMRNYDMPLIVAASTLLLLGLLMVYSASIALADGPRYASYGRYYFVIRHGLFLTAGLLAAAVVLSVPIRVWQRLAVPLFMFALILLVAVLIPGIGREVNGAHRWIPLGPLNFQPSELMKLAALLYAADYTVRKQEHMQAFSRGFLPMACALGGVGMLLLLEPDLGAFMVIVAIAIGILFLGGINGKYFSSLLAVLVGTFLMLIWVSPWRRARLFAYLDPWNEANAYGSAYQLSHSLIALGRGEWFGVGLGASVEKLHYLPEAHTDFLMAVVGEELGFAGVMLVITLFAIIVYRGFDIGRQAIAMERTFAGLVAHGVAMWVGVQAFINMGVCLGLLPTKGLTLPLMSYGGSGIVMNLCALAMLIRVDVENRVMMRGGRV”, the protein production result is on record as “failed”.

Consider “MSLFIYEVLIRLFMTFILSLLLTPLVKLLAFRIGAYDAPGERRINTKNMPTAGGLAIYIAFASSCLLIFRSIIPQDYIWPIILAGGMVVLTGLIDDIKEITPMKKTIGILLAALVIYFVAGIRIDFVTLPVVGMIDLRWFSLPLTLLWILAITNAVNLIDGLDGLASGVSIIGLTTIGITGYFFLHAKTVYIPIVIFILVASIAGFFPYNFYPAKIFLGDTGALFLGFMIAVMSLQGLKNATFITVITPMVILGVPITDTVYAIIRRLLNKKPISSADKMHLHHRLLSLGFTHKGAVMTIYALALVFSFVSLLFSYSSTVASILLIVFCLIGLELFIELIGLVGEGHQPLMYLLRILGNREYRQEQMKKRLGKHSKRK”, for which the protein production result was “failed”.

As for “MSLFKRSVVSEITSHAGVVFSTLVVVWLSVLLVRLLGEAAGGSIGADVVLGLAAFSTITALPTILAVSLFIAVLTTVTRNYRESEMVVWFASGLSLADWLRPVARVAVPIAMLVAALTLVASPWAYRQIGEYRERFEQRSDLSKVTAGQFAESGRGDRVFFAEDPVRPGDELGAVFARSIDPEWLSVLTASNARSETLPNGDRFLVLGEGHRYDLKPGTPEIRLVNFDQYGVRLESKAGEDPMAEARAAAERSSKARSTMQLVQDNTDSSWSQIMWRVAMPLAALNLALLAIPLGAVNPRLGRSGDLLIAGLVGLLYMNMINLSRAWISSGKISFSIGVWAVHAVVALLAAYLLMRRLRVKAPRNAGRGA”, the protein production entry was “failed”.

As for “MSLGRFVRHALITAGTKGLGKQVTEKLLAKGYSVTVTYHSDTTAMETMKETYKDVEERLQFVQADVTKKEDLHKIVEEAMSHFGKIDFLINNAGPYVFERKKLVDYEEDEWNEMIQGNLTAVFHLLKLVVPVMRKQNFGRIINYGFQGADSAPGWIYRSAFAAAKVGLVSLTKTVAYEEAEYGITANMVCPGDIIGEMKEATIQEARQLKEHNTPIGRSGTGEDIARTISFLCEDDSDMITGTIIEVTGAVDVIHREGHHHHHH”, the protein production result is reported as “not failed”.
